According to the Human Domainome abundance scans (Beltran et al. 2025):
± gives the uncertainty stated by the source.

B1: Zinc finger MYM-type protein 6, residues 427 to 504; numbered along this chain, O95789 (parent)
chain: KLKCQHCNHLFATKPELLFYKGKMFLFCGKNCSDEYKKKNKVVAMCDYCKLQKIIKETVRFSGVDKPFCSEVCKFLSA
B2: Dynamin-binding protein, residues 242 to 304; numbered along this chain, Q6XZF7 (parent)
chain: EEPGTYGVALYRFQALEPNELDFEVGDKIRILATLEDGWLEGSLKGRTGIFPYRFVKLCPDTR

Variants of: B1
Assay: abundance fitness (aPCA) (normalised: wild type 0, dead -1); higher = more abundant; growth selection in yeast, the domain comes from the species named
Settings: Homo sapiens

Row | Variant | abundance fitness
1 | KLGCQHCNHLFATKPELLFYKGKMFLFCGKNCSDEYKKKNKVVAMCDYCKLQKIIKETVRFSGVDKPFCSEVCKFLSA [K3G] | -0.078 ± 0.029
2 | KLFCQHCNHLFATKPELLFYKGKMFLFCGKNCSDEYKKKNKVVAMCDYCKLQKIIKETVRFSGVDKPFCSEVCKFLSA [K3F] | -0.116 ± 0.055
3 | KLECQHCNHLFATKPELLFYKGKMFLFCGKNCSDEYKKKNKVVAMCDYCKLQKIIKETVRFSGVDKPFCSEVCKFLSA [K3E] | 0.001 ± 0.036
4 | KLRCQHCNHLFATKPELLFYKGKMFLFCGKNCSDEYKKKNKVVAMCDYCKLQKIIKETVRFSGVDKPFCSEVCKFLSA [K3R] | -0.075 ± 0.032
5 | KLTCQHCNHLFATKPELLFYKGKMFLFCGKNCSDEYKKKNKVVAMCDYCKLQKIIKETVRFSGVDKPFCSEVCKFLSA [K3T] | -0.102 ± 0.046
6 | KLDCQHCNHLFATKPELLFYKGKMFLFCGKNCSDEYKKKNKVVAMCDYCKLQKIIKETVRFSGVDKPFCSEVCKFLSA [K3D] | -0.186 ± 0.079
7 | KLCCQHCNHLFATKPELLFYKGKMFLFCGKNCSDEYKKKNKVVAMCDYCKLQKIIKETVRFSGVDKPFCSEVCKFLSA [K3C] | -0.163 ± 0.053
8 | KLSCQHCNHLFATKPELLFYKGKMFLFCGKNCSDEYKKKNKVVAMCDYCKLQKIIKETVRFSGVDKPFCSEVCKFLSA [K3S] | 0.021 ± 0.042
9 | KLWCQHCNHLFATKPELLFYKGKMFLFCGKNCSDEYKKKNKVVAMCDYCKLQKIIKETVRFSGVDKPFCSEVCKFLSA [K3W] | -0.243 ± 0.042

Variants of: B2
Assay: as above
Settings: Homo sapiens

Row | Variant | abundance fitness
10 | EEPGTYGVALYRFQALEPNELDFEVGDKIRILATLEDGWLEGSLKGRTGIFPYRFVKLCPDTV [R63V] | -0.056 ± 0.079
11 | EEPGTYGVALYRFQALEPNELDFEVGDKIRILATLEDGWLEGSLKGRTGIFPYRFVKLCPDTT [R63T] | 0.186 ± 0.056
12 | EEPGTYGVALYRFQALEPNELDFEVGDKIRILATLEDGWLEGSLKGRTGIFPYRFVKLCPDTC [R63C] | -0.06 ± 0.062
13 | EEPGTYGVALYRFQALEPNELDFEVGDKIRILATLEDGWLEGSLKGRTGIFPYRFVKLCPDTG [R63G] | 0.119 ± 0.083
14 | EEPGTYGVALYRFQALEPNELDFEVGDKIRILATLEDGWLEGSLKGRTGIFPYRFVKLCPDTD [R63D] | 0.125 ± 0.087
15 | EEPGTYGVALYRFQALEPNELDFEVGDKIRILATLEDGWLEGSLKGRTGIFPYRFVKLCPDTI [R63I] | -0.012 ± 0.061
16 | EEPGTYGVALYRFQALEPNELDFEVGDKIRILATLEDGWLEGSLKGRTGIFPYRFVKLCPDTH [R63H] | 0.065 ± 0.063
17 | EEPGTYGVALYRFQALEPNELDFEVGDKIRILATLEDGWLEGSLKGRTGIFPYRFVKLCPDTW [R63W] | -0.206 ± 0.16
18 | EEPGTYGVALYRFQALEPNELDFEVGDKIRILATLEDGWLEGSLKGRTGIFPYRFVKLCPDTM [R63M] | 0.049 ± 0.14
19 | EEPGTYGVALYRFQALEPNELDFEVGDKIRILATLEDGWLEGSLKGRTGIFPYRFVKLCPDTS [R63S] | 0.15 ± 0.055
20 | EEPGTYGVALYRFQALEPNELDFEVGDKIRILATLEDGWLEGSLKGRTGIFPYRFVKLCPDTN [R63N] | 0.168 ± 0.064
21 | EEPGTYGVALYRFQALEPNELDFEVGDKIRILATLEDGWLEGSLKGRTGIFPYRFVKLCPDTE [R63E] | -0.455 ± 0.29
22 | EEPGTYGVALYRFQALEPNELDFEVGDKIRILATLEDGWLEGSLKGRTGIFPYRFVKLCPDTA [R63A] | 0.087 ± 0.073
23 | EEPGTYGVALYRFQALEPNELDFEVGDKIRILATLEDGWLEGSLKGRTGIFPYRFVKLCPDTF [R63F] | -0.216 ± 0.089
24 | EEPGTYGVALYRFQALEPNELDFEVGDKIRILATLEDGWLEGSLKGRTGIFPYRFVKLCPDTP [R63P] | 0.164 ± 0.089
25 | EEPGTYGVALYRFQALEPNELDFEVGDKIRILATLEDGWLEGSLKGRTGIFPYRFVKLCPDTQ [R63Q] | -0.184 ± 0.19
26 | EEPGTYGVALYRFQALEPNELDFEVGDKIRILATLEDGWLEGSLKGRTGIFPYRFVKLCPDTL [R63L] | -0.005 ± 0.083
27 | EEPGTYGVALYRFQALEPNELDFEVGDKIRILATLEDGWLEGSLKGRTGIFPYRFVKLCPDGR [T62G] | 0.046 ± 0.049
28 | EEPGTYGVALYRFQALEPNELDFEVGDKIRILATLEDGWLEGSLKGRTGIFPYRFVKLCPDHR [T62H] | 0.044 ± 0.054
29 | EEPGTYGVALYRFQALEPNELDFEVGDKIRILATLEDGWLEGSLKGRTGIFPYRFVKLCPDPR [T62P] | 0.079 ± 0.06
30 | EEPGTYGVALYRFQALEPNELDFEVGDKIRILATLEDGWLEGSLKGRTGIFPYRFVKLCPDIR [T62I] | -0.034 ± 0.055
31 | EEPGTYGVALYRFQALEPNELDFEVGDKIRILATLEDGWLEGSLKGRTGIFPYRFVKLCPDQR [T62Q] | -0.092 ± 0.1
32 | EEPGTYGVALYRFQALEPNELDFEVGDKIRILATLEDGWLEGSLKGRTGIFPYRFVKLCPDKR [T62K] | -0.267 ± 0.15
33 | EEPGTYGVALYRFQALEPNELDFEVGDKIRILATLEDGWLEGSLKGRTGIFPYRFVKLCPDVR [T62V] | -0.04 ± 0.055
34 | EEPGTYGVALYRFQALEPNELDFEVGDKIRILATLEDGWLEGSLKGRTGIFPYRFVKLCPDRR [T62R] | -0.046 ± 0.065
35 | EEPGTYGVALYRFQALEPNELDFEVGDKIRILATLEDGWLEGSLKGRTGIFPYRFVKLCPDLR [T62L] | -0.214 ± 0.058
36 | EEPGTYGVALYRFQALEPNELDFEVGDKIRILATLEDGWLEGSLKGRTGIFPYRFVKLCPDWR [T62W] | -0.37 ± 0.19
37 | EEPGTYGVALYRFQALEPNELDFEVGDKIRILATLEDGWLEGSLKGRTGIFPYRFVKLCPDYR [T62Y] | -0.127 ± 0.052
38 | EEPGTYGVALYRFQALEPNELDFEVGDKIRILATLEDGWLEGSLKGRTGIFPYRFVKLCPDNR [T62N] | 0.105 ± 0.052
